Numbering of substitutions follows the chain as printed.
Key:
RNase R R572K = target: T1, RNase R R572K (Escherichia coli, UniProt P21499 1-813, R572K); experiment: filter binding
T1 sequence: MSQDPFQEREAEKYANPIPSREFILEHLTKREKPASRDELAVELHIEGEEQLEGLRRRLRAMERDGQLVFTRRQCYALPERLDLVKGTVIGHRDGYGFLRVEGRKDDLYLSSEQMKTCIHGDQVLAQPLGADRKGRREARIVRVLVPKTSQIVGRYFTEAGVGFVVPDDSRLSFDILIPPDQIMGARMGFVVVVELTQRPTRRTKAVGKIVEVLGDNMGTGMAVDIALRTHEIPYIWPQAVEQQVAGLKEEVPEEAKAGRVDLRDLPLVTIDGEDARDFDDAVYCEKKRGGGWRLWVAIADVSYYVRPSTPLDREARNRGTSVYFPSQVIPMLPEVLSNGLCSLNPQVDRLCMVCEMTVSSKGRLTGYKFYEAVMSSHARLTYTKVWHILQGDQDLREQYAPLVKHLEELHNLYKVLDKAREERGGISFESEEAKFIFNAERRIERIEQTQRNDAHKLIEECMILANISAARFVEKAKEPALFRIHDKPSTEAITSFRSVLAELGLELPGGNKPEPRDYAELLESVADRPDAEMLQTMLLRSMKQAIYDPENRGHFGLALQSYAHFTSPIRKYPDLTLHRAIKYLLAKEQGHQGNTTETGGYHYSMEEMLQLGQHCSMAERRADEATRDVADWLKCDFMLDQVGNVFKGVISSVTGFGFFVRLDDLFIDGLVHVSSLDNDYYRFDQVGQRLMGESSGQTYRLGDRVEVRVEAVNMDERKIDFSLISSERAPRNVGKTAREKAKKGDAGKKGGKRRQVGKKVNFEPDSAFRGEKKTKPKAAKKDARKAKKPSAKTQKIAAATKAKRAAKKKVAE

RNase R wild-type = target: T2, RNase R wild-type (Escherichia coli, UniProt P21499 1-813); experiment: filter binding
T2 sequence: T1 sequence with K572R

Binder: AAAAAAAAAAAAAAAAA (ssRNA) [A17]
- Kd (RNase R R572K): 0.5 ± 0.1 nM
- Kd (RNase R wild-type): 0.8 ± 0.1 nM

From PMC2786168
